Assay results as given in patent publication US20240336672A1.

Key:
Conditions in all cases: remark: other sources report otherwise
[1] = molecular target: SARS-CoV-2 RBD (B.1.1.7) domain (SARS-CoV-2); assay: ELISA
[2] = molecular target: SARS-CoV-2 RBD (B.1.351) domain (SARS-CoV-2); assay: ELISA
[3] = molecular target: SARS-CoV-2 RBD (P.1) domain (SARS-CoV-2); assay: ELISA
[4] = molecular target: T1, SARS-CoV-2 Spike ectodomain (tri-S), Wuhan (SARS-CoV-2), P0DTC2; assay: ELISA
[5] = molecular target: SARS-CoV-2 RBD (B.1.1.7) domain (SARS-CoV-2); assay: ELISA; parameters: unit not given beside the values
[6] = molecular target: SARS-CoV-2 RBD (B.1.351) domain (SARS-CoV-2); assay: ELISA; parameters: unit not given beside the values
[7] = molecular target: SARS-CoV-2 RBD (P.1) domain (SARS-CoV-2); assay: ELISA; parameters: unit not given beside the values
[8] = molecular target: T1, SARS-CoV-2 Spike ectodomain (tri-S), …; assay: tri-S capture ELISA
[9] = molecular target: T1, SARS-CoV-2 Spike ectodomain (tri-S), …; assay: ELISA, coated antigen
[10] = molecular target: SARS-CoV-2 RBD (B.1.1.7) domain (SARS-CoV-2); assay: RBD/ACE2 blocking ELISA
[11] = molecular target: SARS-CoV-2 RBD (B.1.351) domain (SARS-CoV-2); assay: RBD/ACE2 blocking ELISA
[12] = molecular target: SARS-CoV-2 RBD (P.1) domain (SARS-CoV-2); assay: RBD/ACE2 blocking ELISA
[13] = molecular target: T1, SARS-CoV-2 Spike ectodomain (tri-S), …; assay: tri-S/ACE2 blocking ELISA
[14] = molecular target: SARS-CoV-2 RBD (B.1.1.7) domain (SARS-CoV-2); assay: RBD-ACE2 competition ELISA; parameters: unit not given beside the values
[15] = molecular target: SARS-CoV-2 RBD (B.1.351) domain (SARS-CoV-2); assay: RBD-ACE2 competition ELISA; parameters: unit not given beside the values
[16] = molecular target: SARS-CoV-2 RBD (B.1.1.7) domain (SARS-CoV-2); assay: RBD-ACE2 competition ELISA; parameters: unit not given beside the values; remark: listed apart in the source
[17] = molecular target: SARS-CoV-2 RBD (B.1.351) domain (SARS-CoV-2); assay: RBD-ACE2 competition ELISA; parameters: unit not given beside the values; remark: listed apart in the source
[18] = molecular target: SARS-CoV-2 RBD (P.1) domain (SARS-CoV-2); assay: RBD-ACE2 competition ELISA; parameters: unit not given beside the values
[19] = molecular target: T1, SARS-CoV-2 Spike ectodomain (tri-S), …; assay: competition ELISA vs bio-Cv2.1169
[20] = molecular target: T1, SARS-CoV-2 Spike ectodomain (tri-S), …; assay: competition ELISA vs bio-Cv2.1353
[21] = molecular target: T1, SARS-CoV-2 Spike ectodomain (tri-S), …; assay: competition ELISA vs bio-Cv2.3194
[22] = molecular target: T1, SARS-CoV-2 Spike ectodomain (tri-S), …; assay: competition ELISA vs bio-Cv2.3235
[23] = molecular target: T1, SARS-CoV-2 Spike ectodomain (tri-S), …; assay: SPR (Biacore), IgG immobilized, viral protein as analyte
[24] = molecular target: T1, SARS-CoV-2 Spike ectodomain (tri-S), …; assay: competition ELISA, spike protein binding to ACE2 ectodomain
[25] = molecular target: SARS-CoV-2 RBD (B.1.1.7) domain (SARS-CoV-2); assay: competition ELISA, biotinylated RBD to immobilized ACE2 ectodomain
[26] = molecular target: SARS-CoV-2 RBD (B.1.351) domain (SARS-CoV-2); assay: as above
[27] = molecular target: SARS-CoV-2 RBD (P.1) domain (SARS-CoV-2); assay: as above
[28] = molecular target: T1, SARS-CoV-2 Spike ectodomain (tri-S), …; assay: SPR (Biacore), antibody coupled to CM5 chip, viral protein as analyte
[29] = molecular target: T1, SARS-CoV-2 Spike ectodomain (tri-S), …; assay: biotinylated tri-S on immobilised ACE2, competition ELISA

B1: Cv2.3194 (recombinant human IgG1) (antibody)
heavy: EVQLVESGGGLIQPGGSLRLSCAASGITVTSNYMSWVRQAPGKGLEWVSVIYPGGSTFYADSVKGRFTISRDNSKNTLYLQMNSLRAEDTAVYYCARDLVVYGMDVWGQGTTVTVSSASTKGPSVFPLAPSSKSTSGGTAALGCLVKDYFPEPVTVSWNSGALTSGVHTFPAVLQSSGLYSLSSVVTVPSSSLGTQTYICNVNHKPSNTKVDKKVEPKSCDKTHTCPPCPAPELLGGPSVFLFPPKPKDTLMISRTPEVTCVVVDVSHEDPEVKFNWYVDGVEVHNAKTKPREEQYNSTYRVVSVLTVLHQDWLNGKEYKCKVSNKALPAPIEKTISKAKQPREPQVYTLPPSRDELTKNQVSLTCLVKGFYPSDIAVEWESNGQPENNYKTTPPVLDSDGSFFLYSKLTVDKSRWQQGNVFSCSVMHEALHNHYTQKSLSLSPGK
light: EIVLTQSPGTLSLSPGERATLSCRASQSVSSSYLAWYQQKPGQAPRLLIYGASSRATGIPGRFSGSGSGTDFTLTISRLEPEDFAIYYCQQGVTFGGGTKVEIKRTVAAPSVFIFPPSDEQLKSGTASVVCLLNNFYPREAKVQWKVDNALQSGNSQESVTEQDSKDSTYSLSSTLTLSKADYEKHKVYACEVTHQGLSSPVTKSFNRGEC
OD405nm [1]: 3.4 | OD405nm [2]: 3.5 | OD405nm [3]: 3.4 | OD405nm [4]: 3.5 | AUC (RBD bind.) [5]: 13 | AUC [6]: 12 | AUC (RBD bind.) [6]: 12 | AUC (RBD bind.) [7]: 13 | triS Capt-ELISA [8]: 2.3 | ELISA OD [9]: 3.6 OD | triS ELISA (AUC) [9]: 15.8 AUC | % binding inhibition [10]: 97% | % binding inhibition [11]: 95% | % binding inhibition [12]: 94% | % binding inhibition [13]: 97% | AUC (RBD block.) [14]: 294 | AUC (RBD block.) [15]: 335 | AUC (RBD block.) [16]: 147 | AUC (RBD block.) [17]: 168 | AUC (RBD block.) [18]: 139 | % inhibition (competition) [19]: 81 | % inhibition (competition) [20]: 82 | % inhibition (competition) [21]: 86 | % inhibition (competition) [22]: 97 | Kd [23]: 0.459 nM | koff [23]: 0.00112 s⁻¹ | kon [23]: 2.45e+06 M⁻¹ s⁻¹ | ACE2 Block (%) [24]: 91% | IC50 [25]: 0.212 µg/mL | IC90 [25]: 0.737 µg/mL | IC50 [26]: 0.206 µg/mL | IC90 [26]: 0.406 µg/mL | IC50 [27]: 0.412 µg/mL | IC90 [27]: 0.591 µg/mL | Kd [28]: < 0.001 nM | EC50 [29]: 0.31 µg/mL
